# According to PMC10787225 (Computational and Structural Biotechnology Journal, 2023):
# B1: PAP(185−208) (peptide)
# peptide: KDFIATLGKLSGLHGQDLFGIWSK
# B2: TTC5(335−361) (peptide)
# peptide: AVILGKVVFSLTTEEKVPFTFGLVDSD
# Columns and labels:
# [1] = Thioflavin T (ThT) aggregation assay; format: physicochemical; conditions: for ThT fluorescence time course / Shape of ThT time course / kind of aggregates / ThT: 20 mM NaPi, pH 7.4, 50 mM NaCl, 37 °C; for ThT fluorescence time course / ThT: 25 µM ThT, triplicate; for ThT fluorescence of peptide alone: 50 mM Tris, pH 8.5, 37 °C, 40 µM ThT; for Shape of ThT time course / kind of aggregates: 20–550 µM peptide; for ThT: peptide 20–550 µM, up to 85 h, 300 rpm, glass bead
# Description: All ThT aggregation assays were done in Greiner 96-well half-area, clear bottom, low-binding plates. The measurements themselves were done in a BMG CLARIOstar plate reader at 37 °C and 300 rpm shaking in orbital mode with one glass bead (0.75–1 mm, Roth) per well. Wells with samples were always surrounded by wells filled with liquid, either other samples or 150 μl water, to counter potential artefacts due to evaporation. […] Final concentrations of 25 µM ThT and 0.04% sodium azide (NaN3) were added. The plate was sealed with sealing tape and put into the plate reader, heated to 37 °C, and ThT fluorescence was read in 1000 cycles of 300 s each using bottom optics with excitation at 448 nm (10 nm bandwidth) and emission at 482 nm (10 nm bandwidth). […] Samples contained 40 µM ThT and 0.04% NaN3.
# (§1) Fig. 4 Test set of eight protein segments. (A) List of the investigated peptides. Underlined stretches in the peptide sequences correspond to the predicted amyloidogenic β-hairpins. A peptide was considered ‘soluble’ when no visible precipitation occurred upon dissolution of the lyophilized peptide in 20 mM NaPi, pH 7.4, 50 mM NaCl, to a final concentration of 20 µM. […] (B) Conformations of investigated segments (red) in the context of their source proteins.
# [2] = tested on: β-wrapin AS10; experiment: 1H-15N HSQC NMR detection of β-hairpin formation upon AS10 binding; conditions: 25 °C; for NMR signature of β-hairpin folding coupled to AS10 binding (1H–15N HSQC of 15N-AS10): 100 µM 15N-AS10 mixed with 20% molar excess of peptide, pH 7.4; for NMR β-hairpin: 100 µM 15N-AS10 with 20% molar excess of peptide, 20 mM sodium phosphate, pH 7.4, 50 mM NaCl
# Description: The NMR spectra were acquired at 25 °C using VNMRS instruments (Varian) at proton frequencies of 800 and 900 MHz, each equipped with a cryogenically cooled Z-axis pulse-field-gradient (PFG) triple resonance probe. The sample buffer was 20 mM sodium phosphate, pH 7.4, 50 mM NaCl, supplemented with 10% D2O. For detection of complex formation, samples contained 100 μM ^15N-labeled AS10, expressed and purified as described, [43], and a 20% excess of the unlabeled peptide. For determination of β-sheet registries, NMR samples contained ^13C^15N-labeled fusion constructs in concentrations between 360–700 μM. Backbone assignments were obtained using BEST-TROSY experiments. Nuclear Overhauser effect (NOE) based distance restraints for β-sheet registry determination were derived from 3D (^1H–^1H-^15N)-NOESY-HSQC (120 ms mixing time) and (^1H–^13Cali-^1H)-HSQC-NOESY (100 ms mixing time) experiments. NMR data were processed using NMRPipe and analyzed with CcpNMR [50].
# To test for β-hairpin formation in the peptides upon binding to AS10 we performed NMR spectroscopy. ^1H–^15N HSQC NMR spectroscopy using ^15N-labeled AS10 (^15N-AS10) and unlabeled binding partner leads to characteristic changes upon β-hairpin folding coupled to binding. These include a great increase in resonance dispersion, appearance of four amide proton resonances in the glycine region (^15N chemical shift <110 ppm) stemming from Gly-13 and Gly-14 in the two AS10-subunits, as well as appearance of amide proton resonances with shift values typical for β-sheet conformation (high ^1H and high ^15N chemical shifts).
# [3] = molecular target: β-wrapin AS10; experiment: Isothermal titration calorimetry (ITC) of peptide binding to AS10; conditions: 30 °C, 30 µM AS10 in cell, peptide titrated from syringe, 20 mM sodium phosphate, pH 7.4, 50 mM NaCl, 1:1 binding model
# Description: ITC was performed at 30 °C using a Microcal iTC200 calorimeter (GE Healthcare). AS10 was filled into the cell at a concentration of 30 µM in 20 mM sodium phosphate, pH 7.4, 50 mM NaCl. Peptides were titrated from the syringe in approximately 10-fold higher concentrations. Heats of post-saturation injections were averaged and subtracted from each injection to correct for heats of dilution and mixing. Dissociation constants were obtained from a nonlinear least-squares fit to a 1:1 binding model using MicroCal Origin.
# [4] = tested on: PAP(248−286); experiment: ThT aggregation assay and AFM of PAP(248−286) in presence of added peptide; format: biochemical, human; conditions: 500 µM PAP(248−286), added peptide 25–100 µM, 50 mM Tris, pH 8.5, 37 °C, 40 µM ThT
# Description: (§2) All ThT aggregation assays were done in Greiner 96-well half-area, clear bottom, low-binding plates. The measurements themselves were done in a BMG CLARIOstar plate reader at 37 °C and 300 rpm shaking in orbital mode with one glass bead (0.75–1 mm, Roth) per well. Wells with samples were always surrounded by wells filled with liquid, either other samples or 150 μl water, to counter potential artefacts due to evaporation. […] Final concentrations of 25 µM ThT and 0.04% sodium azide (NaN3) were added. The plate was sealed with sealing tape and put into the plate reader, heated to 37 °C, and ThT fluorescence was read in 1000 cycles of 300 s each using bottom optics with excitation at 448 nm (10 nm bandwidth) and emission at 482 nm (10 nm bandwidth). […] PAP(248−286) and SEM1(86−107) were kept at constant concentrations of 500 and 300 µM, respectively. […] Samples contained 40 µM ThT and 0.04% NaN3.
# (§3) For AFM imaging, 2 μl samples were taken out of the wells at the end of the ThT aggregation assays, put onto a freshly cleaved muscovite mica surface and dried during incubation for 10 min under the clean bench. Subsequently, the samples were washed with 100 μl ddH2O in three steps and dried with a stream of N2 gas. Imaging was performed in intermittent contact mode (AC mode) in a JPK NanoWizard 3 atomic force microscope using a silicon cantilever with silicon tip (OMCL-AC160TS-R3, Olympus) with a typical tip radius of 9 ± 2 nm, a force constant of 26 N/m and resonance frequency around 300 kHz. The images were processed using JPK DP Data Processing Software (version spm-5.0.84).
# [5] = tested on: SEM1(86−107); experiment: ThT aggregation assay and AFM of SEM1(86−107) in presence of added peptide; format: biochemical, human; conditions: 300 µM SEM1(86−107), added peptide 25–100 µM, 50 mM Tris, pH 8.5, 37 °C, 40 µM ThT
# Description: as §2, §3
# [6] = Solubility by visible precipitation upon dissolution of lyophilized peptide; conditions: aqueous buffer, µM concentrations, neutral pH; visual
# Description: as §1
# [7] = Atomic force microscopy (AFM) of samples at the end of ThT aggregation assays; format: physicochemical; conditions: for AFM aggregate morphology: end of ThT aggregation assay in 20 mM NaPi, pH 7.4, 50 mM NaCl, dried on mica; for AFM aggregate morphology of individual peptide: end of ThT assay at moderate peptide concentrations without ThT fluorescence, 50 mM Tris, pH 8.5
# Description: as §3
# [8] = molecular target: β-wrapin AS10; experiment: ITC; 30 µM AS10 in the cell, peptides titrated from the syringe at approximately 10-fold higher concentrations; 30 °C; 20 mM sodium phosphate, pH 7.4, 50 mM NaCl; fit to a 1:1 binding model
# [9] = peptide alone 25–100 µM (up to 100 µM)
molecule,measurement,setting,value
NBPF1(928−946): synthetic peptide of predicted β-hairpin-forming amyloidogenic segment 928−946 of NBPF1 (RSAFYILEQQRVGWALDMD),ThT fluorescence time course,[1]; 20–25 µM peptide,no increase in fluorescence intensity was detected
same,ThT fluorescence time course,[1]; peptide increased to 500–550 µM,remained ThT negative
same,NMR signature of β-hairpin folding coupled to AS10 binding (1H–15N HSQC of 15N-AS10),[2],no change
same,Affinity to AS10 (dissociation constant KD),[3],heat signals were not observed
"PAP Str2(200−208): β-strand peptide, constituent segment 200−208 of PAP(185−208)",ThT fluorescence of peptide alone,[1]; [9],do not exhibit ThT fluorescene
same,Effect of added peptide on ThT time trace of PAP(248−286),[4],"induced increases in ThT fluorescence, albeit with somewhat longer lag-times"
same,Effect of added peptide on ThT time trace of SEM1(86−107),[5],"induced increases in ThT fluorescence, albeit with somewhat longer lag-times"
"MIC26(153−178): synthetic peptide of predicted β-hairpin-forming amyloidogenic segment 153−178 of MIC26 (QQAIVFAQVSGERLYDWGLRGYIVIE; UniProt Q9BUR5 153-178, looked up, fragment)",Precipitate formation upon dissolution,[6],immediate precipitation
same,Shape of ThT time course / kind of aggregates,[1],ThT fluorescence was high from the beginning
same,ThT,[1],+
same,NMR signature of β-hairpin folding coupled to AS10 binding (1H–15N HSQC of 15N-AS10),[2],no change
same,AFM aggregate morphology,[7],fibrillar aggregates confirming amyloid formation were detected
TTC5(335−361): synthetic peptide of predicted β-hairpin-forming amyloidogenic segment 335−361 of TTC5 (AVILGKVVFSLTTEEKVPFTFGLVDSD),ThT,[1],+
same,NMR signature of β-hairpin folding coupled to AS10 binding (1H–15N HSQC of 15N-AS10),[2],signature was observed
same,NMR β-hairpin,[2],+
same,Kd,[3]; read-out: Affinity to AS10 (dissociation constant KD),4.7 ± 0.9 µM
"3-PGDH(298−319): synthetic peptide of predicted β-hairpin-forming amyloidogenic segment 298−319 of 3-PGDH (EIAVQFVDMVKGKSLTGVVNAQ; UniProt O43175 298-319, looked up, fragment)",Precipitate formation upon dissolution,[6],immediate precipitate formation upon dissolution
same,Shape of ThT time course / kind of aggregates,[1],can form both ThT-positive as well as ThT-negative aggregates
same,ThT,[1],+
same,NMR signature of β-hairpin folding coupled to AS10 binding (1H–15N HSQC of 15N-AS10),[2],no change
NDUFS7(104−129) (from UniProt O75251 104-129) (peptide),Kd,[8],4.7 µM
"PAP Str1(186−194): β-strand peptide, constituent segment 186−194 of PAP(185−208) (DFIATLGKL)",ThT fluorescence of peptide alone,[1]; [9],concentration-dependent increase in ThT fluorescence within minutes to a few hours
same,Effect of added peptide on ThT time trace of PAP(248−286),[4],ThT time traces exhibited additional phases of rapid growth
same,Effect of added peptide on ThT time trace of SEM1(86−107),[5],ThT time traces exhibited additional phases of rapid growth
"SEM1(86−107): semen amyloid peptide, fragment of semenogelin-1 (DLNALHKTTKSQRHLGGSQQLL) [reference compound]",ThT fluorescence of peptide alone,[1]; peptide alone 300 µM,did not exhibit ThT fluorescence
same,AFM aggregate morphology of individual peptide,[7],aggregates of amorphous shape
CYP2W1(176−204): synthetic peptide of predicted β-hairpin-forming amyloidogenic segment 176−204 of CYP2W1 (SNITFALLFGRRFDYRDPVFVSLLGLIDE),Precipitate formation upon dissolution,[6],immediate precipitation
same,Shape of ThT time course / kind of aggregates,[1],ThT fluorescence was high from the beginning
same,ThT,[1],+
same,NMR signature of β-hairpin folding coupled to AS10 binding (1H–15N HSQC of 15N-AS10),[2],signature was also observed
same,NMR β-hairpin,[2],+
same,AFM aggregate morphology,[7],fibrillar aggregates confirming amyloid formation were detected
PAP(248−286): PAP fragment which forms functional amyloid in semen (GIHKQKEKSRLQGGVLVNEILNHMKRATQIPSYKKLIMY) [reference compound],ThT fluorescence of peptide alone,[1]; peptide alone 500 µM,did not exhibit ThT fluorescence
same,AFM aggregate morphology of individual peptide,[7],aggregates of amorphous shape
B1,Kd,[8],39 µM
B2,Kd,[8],4.7 µM
